The DeepSol protein solubility set

Assay: soluble on expression in E. coli; label from the status in PepcDB or PDB records

Soluble on expression in E. coli, not soluble:
MGSDKIHHHHHHMNDDFLFSDDEPDIAEEEVSEPYNILIVDDDEEIHTITKMALGEFKLDGRPLKFHSVYSGKDAIAFLQDNTNIAMMLLDVVMETDHAGLDVAQWVRETRKNRLIRIVLRTGQPGQAPEEDVIARYDIDDYKEKTELTYRKLVTLMYSCLRAYRDLNAIERNKRGLEKVINASAEVFSARSMQALCQGILEQLVALITLSDDAMYCRIDALTASSDTDDPFEIIGGTGEYEEAVGQPVHGEIDWDIVRPMQQSPQNVDFRIVDGNYYGLYKTSSSRQYLLFIRGVRDLSELDQNLLGLFVNNSSIAIDNLQATENEREAQRELLYSVGEAIEKHSIDEISHHVKRSAEMAGQLAIFSGATQEQAEALKQAASVYDIGKVSVQMELAQRADVLSIHEYEEIMQKVIQGHDYLRQTDSAVAKVAALIAQDIHERWNGSGFPSQKSAKAIDLNARILSITSHFDALRTQRNYRDAKESEDAADYLLQHSGKFFDPELVGLMLDNLDAMEKIRQRFLDKKQDTRH, MGSDKIHHHHHHMNDLSRSPYILEMRNVSKTFPGVKALDGINLKVKRGTIHALMGENGAGKSTLMKILYGIYTPDAGGELILDDKPFKPSAPIDAIRTGLTMVPQEISPAGNLTIADNFYLGREITRSKFFLNQKEMDCKTAEILNELGIPMDVTAKMSDVSVAKAQLVAIATAVSNDAKVIIMDEPTTALTEVEVEQLYKIIETVRQRGISIIFISHKLDEVFRVSDEITVIRDGQYVGTKLTSEVTKDELISMMVGRDMSEMFQRERIVISDEVVLEIKNFSRAGKYHDINFQVRRGEIFGIAGLVGAGRSEIVEGLFGYKLADSGEIYVHGEKADIKTPLDAMKYKIGFVTEDRKLTGLFLNLSITDNMIMPRMSPYLENFLVSVTKAQKSANAQKDKLKIKAPNVEVITNNLSGGNQQKVLLARWLLLEPDILILDEPTKGIDVGAKAELYKLMVELAKQGKSIIMITSDMLELLSMSDRVMVMHEGRVAGIIPQEELTQERVLELASGLGQV, MGSDKIHHHHHHMNDPESIFQRLDRLLARIEDTLPVRPQHADPAEYIALRWRKHGDTGYLQAINHPHTITLNELLNIEEQKQTLDRNTLQFVSGLPANNVLLTGARGTGKSSLIKALLNRYADRGLRMIEVDKLGLTDLPDIIEFIGQRPERFILYCDDLSFEADEPGYKALKVVLDGSISTASDNVLIYATSNRRHLIPEFMHENLATRHVDGEIHPGEATEEKISLSERFGLWLSFYPFDQEQYLEIVRHWLSQHGISRLSGPARQEALRWALARGSRNGRVARQFARDWAGQQKLAKTEPVRVDKE, MGSDKIHHHHHHMNDYKALRTFLLAAEKRNFAQVARELDMTPAAVTRAIAALEAELGVQLFVRTTRQVSLTTDGAIFAAQLQPAVKTIEDARREVMNAHKADEGRLRISAPTWFGKAVLPPILSAFKERYPKMSFEISLSDGLVNIVDDDYDLAIRISSQPSDKFTIWRKIRVVPRILVAAPGSRFVDMQHPNELTPDDCLAYSGDSRRENWVLSDGGSSITISAGRAFSANNGEVLADIAADGAGVAMLPGFHIFEHLRTGRLVHVFKGWAPPDLWLTLYYPPYQALPPRIASFSKFFEEQVPAHMVMLD, MGSDKIHHHHHHMNELNCLPQDAVLWGHDILPAATASLEAHGLRHPLTFTVEPLRDFHAQHVAPYLKRGAGAFTDLPPHAPDTGVRCALDACLRAEADSILALGGGSVLDAAKAVSHLHQQQTGRYLPIAAYPTTLSGSEYSHYFGVTETVGPQPFKRSYAVRETVPKVVVIDPKLLVNTPRELLLSSAIKGIDHAVEGMRRVGVDHPHAILAAAGVERFFAVLEKWPAGTDTAEALRSGQITTDDLLQLQLAAWQCYFFPASVIYGLSHRIGHILGGTYGLPHSVTSCITLAPVLQACAATYGNKLNIFCHGETTADAAPALAGRIAGVVKRLGLPYRLRDLDFDRARLAQVAALLRQNYAAEVADLGDGADAMLHTFLERLW, MGSDKIHHHHHHMNEVLDEYRRLLSEVDHWFSRCIARSGEHIRCAEGCSECCRGLFDITLLDAALLKEGFDRLDAFTREQVLVKCRKRLAGLLRLWPEFAHPYMLNYRPEEEWELLMPDDDETPCPLLGADGRCLVYGFRPMTCRLHGLPLVDLTGEVLHDEWCTLNYVGGDPLADAGLRGEFTKIFREEVRLFRHFSERLLGQEFRELDTFIPTALLIDFTRFDWHRFAAGFSVTP, MGSDKIHHHHHHMNFQQCRYVEAIANTGSFSEAAKKLYVTQPNLSSSIKELENDLGVQLFIRSNTGARLTDDGYDFLKYAKRILGEADLLKKRYQDNYKKSFTISSHHYDFLAIPLLEIAEKFKKDFQHFHLIETTTKKILESVLNFESDLGILYLNDDNRHILERYFKQHDLAFTPLGDFPTRIFLRKDHPLAQQKVIEKVQLKDYKQVRFRQEISGLNFDEDTLDIPENQSVFYSNDRGTIMNILCGSDAYASGLGIVNSFIKDQIVLIPLKDSKMHTLGFVSNKRKQETDITQQFITAVKNSLRTYERGTQL, MGSDKIHHHHHHMNGQKIIGSQCITQCNPDLRITELIIPGTHDSATSTCYERYYRTQDLSIAEQLDCGVRFLDIRLRKEMVAAHREWVSDIRAEEIFEKCGEFLQKNPQEFVLMRIQNANERKDDFPEYGEALLSKVQQYKSLFYAWDHSQIVQDGNPKWPTIAQAAGKIVPIECAPPSMSINKIDGELWAANWHDNSQILLQDLWDGPTVEEKCVAIKTLIEKGREVHSDILLLNHISATNGELQYPDAYAAYLNEYSSRLWKQLAKRSFRGVQIYDFINPSICQELLRLNFD, MGSDKIHHHHHHMNGTATGPRSSHFHWLLCALIVALPGCRDKPLREVIDRPVLFTEIADPQNASYGRFAGSIQPQHEVALGFRIAGRLATRHAEMGDRVRKGDLLATLDPSDQQNRLRARQAELSRARSAWQQLSDEQTRYQQLYTRGVGSRARLDQLNSDLRSQNALLDQASAAVQQAGDHLAYTRLTAEFDGLVTQWQTEVGQVMATGQAVVSLARPESREAVVDLPVGLLASLDDSRQIRVISQLDKQVSVIASVRQLAPQIDAGTRTQRVRLALQHIPDSLRLGSTVTVEISGNAPAFHELPASAVLARDGKDQVWVIDPSTSTLSPRAVQVLARKGGKVQVSGELHEGEKVVTAGVNGMQSGQKIRMQREVSL, MGSDKIHHHHHHMNIAIFGAGSTGCYLAGQLCISELQVSLICRPAIKQKIIANNGITLTDYNGFKQTIMPQALITDINQESSIYGKFDVVFVTLKCHQVSSIANQLMAITHDNSSIIFMQNGLGSFDSIKDSLDHYSLLQGITPFNVLQLPNAVFHKGTEGVFTLQANPHTIAIQSALVNHGFGCDIEADFTPMIYGKLLLNLNNALNAVTDLPIKQQLSHYKNRRILAKAMKEWLAVCEAADIQLHQYTKVKPSWLPTILLLPNVLFTVLAKQMLDIDPKARSSMWEDIQAKRKTEVDYINGAVVSIGKKYGIKTPVNQAIVEQIKQLEQRH, MGSDKIHHHHHHMNIFDNILSSATIFKNRDVLRHSYTPEKLPHREEQINQLALLLSPMLRGGTPSNIFIYGKTGTGKTATVLFVARQLEEASRKAKLNVAVHYINCEIVDTAYRVLASLARKFGSNVPMTGWPTDQVYEEVKKALERRGTRVVVILDEIDKLVKKAEEALYGLTRINSELENSSICIVGISNNLKFKEYLDARILSSLSEEEIVFPPYNAEQLEDILQQRAKLAFEDGVLEDGVIQLCAAIAAQEHGDARKALDLLRVSAEIAERERDSMVRVEHVKKAVRKIETDYMIETVRTLPVHSKILLYSMSLISENSPKFTTGEVYCVYKKLCGKVGVDPLTQRRISDLISELDMLGILNSVVISKGRYGRTREMKLEADEKVLRKALEEDYRLQNLRKFEGELKKLANLNLFQF, MGSDKIHHHHHHMNILDGIKSLALKLGSKQDQTYYARGLSLTDDLMQIEALWRDNWIANKVCIKRSEDMVRNWRDIFSNDLKSEQLDEFTKLERRLKLRETLTKALQWSSLYGAVGLLVVTDTINITSPLQPTERLKRLIILPKWKISPTGQRDDDVFSPNFGRYSEYTITGGTQSVSVHHSRLLIINANDAPLSDNDIWGVSDLEKIIDVLKRFDSASANVGDLIFESKIDIFKIAGLSDKISAGLENDVAHVISAVQSIKSATNSLLLDAENEYDRKELSFGGLKDLLTEFRNAVAGAADMPVTILFGQSVSGLASGDEDIQNYHESIHRLQETRLRPVLEVLDTLLCNELFGGQPDDWWFEFLPLTVVKQEQQVNMLNTFATAANTLIQNGVVNEYQVANELRESGLFANISADDIEEMKNANELARNFEEPEGESTQVQASEDE
